Data as given in PMC4434323.

What follows are sequences tested against T1, T22C8.4 (T22C8.4) (Caenorhabditis elegans) (UniProt Q22677).
T1 sequence: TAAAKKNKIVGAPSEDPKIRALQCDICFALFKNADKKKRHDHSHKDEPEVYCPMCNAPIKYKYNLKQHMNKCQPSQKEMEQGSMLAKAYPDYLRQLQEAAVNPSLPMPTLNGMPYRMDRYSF
Sequence “CAGCAGGG (double strand) [8-mer CAGCAGGG]” has a binding signal (PBM E-score (-0.5 to 0.5)) of 0.494.
For “ACCCTGCT (double strand) [8-mer ACCCTGCT]”, the binding signal (PBM E-score (-0.5 to 0.5)) was 0.487.
With “ACCCCTGC (double strand) [8-mer ACCCCTGC]” the binding signal (PBM E-score (-0.5 to 0.5)) was 0.494.
For “CCCCTGCC (double strand) [8-mer CCCCTGCC]”, the binding signal (PBM E-score (-0.5 to 0.5)) was 0.479.

Each sequence was assayed against T2, F55C5.11 (F55C5.11) (Caenorhabditis elegans) (UniProt Q1ZXU0).
T2 sequence: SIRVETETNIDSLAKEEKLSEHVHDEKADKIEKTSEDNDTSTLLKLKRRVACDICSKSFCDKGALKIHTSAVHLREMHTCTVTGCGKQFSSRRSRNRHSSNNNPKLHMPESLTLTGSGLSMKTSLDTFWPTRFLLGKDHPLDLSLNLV
For “GGGTGACA (double strand) [8-mer GGGTGACA]”, the binding signal (PBM E-score (-0.5 to 0.5)) was 0.494.
Work on “CTGTCACC (double strand) [8-mer CTGTCACC]” yielded a binding signal (PBM E-score (-0.5 to 0.5)) of 0.487.
Sequence “GGTGACAA (double strand) [8-mer GGTGACAA]” has a binding signal (PBM E-score (-0.5 to 0.5)) of 0.487.
With “GGTGACAC (double strand) [8-mer GGTGACAC]” the binding signal (PBM E-score (-0.5 to 0.5)) was 0.496.
With “AGGTGACA (double strand) [8-mer AGGTGACA]” the binding signal (PBM E-score (-0.5 to 0.5)) was 0.486.
Sequence “ATGTGACA (double strand) [8-mer ATGTGACA]” has a binding signal (PBM E-score (-0.5 to 0.5)) of 0.489.
With “TGTGACAA (double strand) [8-mer TGTGACAA]” the binding signal (PBM E-score (-0.5 to 0.5)) was 0.485.
In the case of “GTGACAAA (double strand) [8-mer GTGACAAA]”, the binding signal (PBM E-score (-0.5 to 0.5)) is reported as 0.484.
Work on “CGGTGACA (double strand) [8-mer CGGTGACA]” yielded a binding signal (PBM E-score (-0.5 to 0.5)) of 0.488.
“AGTGTCAC (double strand) [8-mer AGTGTCAC]” was tested, and the binding signal (PBM E-score (-0.5 to 0.5)) was 0.487.
With “TGGTGACA (double strand) [8-mer TGGTGACA]” the binding signal (PBM E-score (-0.5 to 0.5)) was 0.487.
“GTGTCACA (double strand) [8-mer GTGTCACA]” was tested, and the binding signal (PBM E-score (-0.5 to 0.5)) was 0.488.
“GGTGTCAC (double strand) [8-mer GGTGTCAC]” gave a binding signal (PBM E-score (-0.5 to 0.5)) of 0.486.
In the case of “GTGTGACA (double strand) [8-mer GTGTGACA]”, the binding signal (PBM E-score (-0.5 to 0.5)) is reported as 0.486.

What follows are sequences tested against T3, bed-3 (F25H8.6) (Caenorhabditis elegans) (UniProt Q19787).
T3 sequence: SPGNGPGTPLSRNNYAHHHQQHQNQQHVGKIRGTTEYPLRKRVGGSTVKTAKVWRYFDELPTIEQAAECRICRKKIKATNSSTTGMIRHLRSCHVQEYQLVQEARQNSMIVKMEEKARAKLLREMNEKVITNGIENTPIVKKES
“GATCCCGA (double strand) [8-mer GATCCCGA]” gave a binding signal (PBM E-score (-0.5 to 0.5)) of 0.49.
“TCCCGAGA (double strand) [8-mer TCCCGAGA]” gave a binding signal (PBM E-score (-0.5 to 0.5)) of 0.493.
“CTCGAGAG (double strand) [8-mer CTCGAGAG]” was tested, and the binding signal (PBM E-score (-0.5 to 0.5)) was 0.493.
“ACTCCCGA (double strand) [8-mer ACTCCCGA]” showed a binding signal (PBM E-score (-0.5 to 0.5)) of 0.49.
“GGTCTCGA (double strand) [8-mer GGTCTCGA]” gave a binding signal (PBM E-score (-0.5 to 0.5)) of 0.491.
“GCTCTCGA (double strand) [8-mer GCTCTCGA]” gave a binding signal (PBM E-score (-0.5 to 0.5)) of 0.491.
With “TCCCGGGA (double strand) [8-mer TCCCGGGA]” the binding signal (PBM E-score (-0.5 to 0.5)) was 0.491.
“CTCGAGAC (double strand) [8-mer CTCGAGAC]” showed a binding signal (PBM E-score (-0.5 to 0.5)) of 0.497.
With “CTCGAGAA (double strand) [8-mer CTCGAGAA]” the binding signal (PBM E-score (-0.5 to 0.5)) was 0.491.
In the case of “GATCTCGA (double strand) [8-mer GATCTCGA]”, the binding signal (PBM E-score (-0.5 to 0.5)) is reported as 0.493.
Work on “ACTCTCGA (double strand) [8-mer ACTCTCGA]” yielded a binding signal (PBM E-score (-0.5 to 0.5)) of 0.49.
“AGTCTCGA (double strand) [8-mer AGTCTCGA]” was tested, and the binding signal (PBM E-score (-0.5 to 0.5)) was 0.494.
With “TCTCGAGA (double strand) [8-mer TCTCGAGA]” the binding signal (PBM E-score (-0.5 to 0.5)) was 0.499.
“CCTCGAGA (double strand) [8-mer CCTCGAGA]” was tested, and the binding signal (PBM E-score (-0.5 to 0.5)) was 0.492.
With “ATCTCGAG (double strand) [8-mer ATCTCGAG]” the binding signal (PBM E-score (-0.5 to 0.5)) was 0.497.

These sequences were tested against T4, K11D2.4 (K11D2.4) (Caenorhabditis elegans) (UniProt G5EBU1).
T4 sequence: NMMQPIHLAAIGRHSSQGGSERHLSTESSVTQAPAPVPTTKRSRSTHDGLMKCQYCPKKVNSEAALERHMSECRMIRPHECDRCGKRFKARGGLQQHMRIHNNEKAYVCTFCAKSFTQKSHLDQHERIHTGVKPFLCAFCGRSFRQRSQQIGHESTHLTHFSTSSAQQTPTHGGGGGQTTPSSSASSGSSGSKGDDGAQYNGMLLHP
Sequence “AAAAAAGA (double strand) [8-mer AAAAAAGA]” has a binding signal (PBM E-score (-0.5 to 0.5)) of 0.495.
Sequence “ACAAAAAA (double strand) [8-mer ACAAAAAA]” has a binding signal (PBM E-score (-0.5 to 0.5)) of 0.494.
Work on “AAAAAACA (double strand) [8-mer AAAAAACA]” yielded a binding signal (PBM E-score (-0.5 to 0.5)) of 0.495.
In the case of “AAAAAAGT (double strand) [8-mer AAAAAAGT]”, the binding signal (PBM E-score (-0.5 to 0.5)) is reported as 0.494.
Work on “AATAAAAA (double strand) [8-mer AATAAAAA]” yielded a binding signal (PBM E-score (-0.5 to 0.5)) of 0.496.
Sequence “CGAAAAAA (double strand) [8-mer CGAAAAAA]” has a binding signal (PBM E-score (-0.5 to 0.5)) of 0.495.

What follows are sequences tested against atf-7 (C07G2.2) (Caenorhabditis elegans) (UniProt Q86MD3).
Sequence of atf-7 (C07G2.2) (Caenorhabditis elegans) (Q86MD3 339-508): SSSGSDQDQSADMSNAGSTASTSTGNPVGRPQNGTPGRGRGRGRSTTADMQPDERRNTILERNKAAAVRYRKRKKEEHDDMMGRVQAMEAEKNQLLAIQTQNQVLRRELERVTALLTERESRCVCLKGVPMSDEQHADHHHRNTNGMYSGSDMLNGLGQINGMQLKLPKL
In the case of “CACGTCAC (double strand) [8-mer CACGTCAC]”, the binding signal (PBM E-score (-0.5 to 0.5)) is reported as 0.496.
“ATACGTCA (double strand) [8-mer ATACGTCA]” gave a binding signal (PBM E-score (-0.5 to 0.5)) of 0.494.
With “ACGTCACC (double strand) [8-mer ACGTCACC]” the binding signal (PBM E-score (-0.5 to 0.5)) was 0.496.
For “ACGTCACT (double strand) [8-mer ACGTCACT]”, the binding signal (PBM E-score (-0.5 to 0.5)) was 0.496.

The sequences below were run against T5, M03D4.4 (M03D4.4) (Caenorhabditis elegans) (UniProt Q21494).
T5 sequence: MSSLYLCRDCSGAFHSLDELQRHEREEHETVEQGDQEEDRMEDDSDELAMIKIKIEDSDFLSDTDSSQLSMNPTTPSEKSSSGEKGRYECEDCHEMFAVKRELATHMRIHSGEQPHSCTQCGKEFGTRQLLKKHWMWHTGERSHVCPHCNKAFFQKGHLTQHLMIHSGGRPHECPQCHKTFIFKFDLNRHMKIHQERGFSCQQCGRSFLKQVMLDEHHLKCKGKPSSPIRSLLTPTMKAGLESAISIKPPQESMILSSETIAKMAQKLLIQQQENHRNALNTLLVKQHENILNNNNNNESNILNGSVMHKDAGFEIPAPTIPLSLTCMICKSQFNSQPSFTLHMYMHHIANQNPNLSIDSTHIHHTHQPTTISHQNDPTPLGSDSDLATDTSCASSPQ
“GTCATGCA (double strand) [8-mer GTCATGCA]” gave a binding signal (PBM E-score (-0.5 to 0.5)) of 0.495.
With “ATGCATGC (double strand) [8-mer ATGCATGC]” the binding signal (PBM E-score (-0.5 to 0.5)) was 0.491.
For “CGCATGAA (double strand) [8-mer CGCATGAA]”, the binding signal (PBM E-score (-0.5 to 0.5)) was 0.491.
In the case of “ATCATGCA (double strand) [8-mer ATCATGCA]”, the binding signal (PBM E-score (-0.5 to 0.5)) is reported as 0.497.
Work on “TCATGCAA (double strand) [8-mer TCATGCAA]” yielded a binding signal (PBM E-score (-0.5 to 0.5)) of 0.493.
Sequence “ACATGCAT (double strand) [8-mer ACATGCAT]” has a binding signal (PBM E-score (-0.5 to 0.5)) of 0.491.
“TGCATGAA (double strand) [8-mer TGCATGAA]” was tested, and the binding signal (PBM E-score (-0.5 to 0.5)) was 0.495.
With “CATGCATG (double strand) [8-mer CATGCATG]” the binding signal (PBM E-score (-0.5 to 0.5)) was 0.498.
For “ACGCATGA (double strand) [8-mer ACGCATGA]”, the binding signal (PBM E-score (-0.5 to 0.5)) was 0.495.
Sequence “ATGCATGA (double strand) [8-mer ATGCATGA]” has a binding signal (PBM E-score (-0.5 to 0.5)) of 0.499.
Work on “GCATGGAA (double strand) [8-mer GCATGGAA]” yielded a binding signal (PBM E-score (-0.5 to 0.5)) of 0.491.
Work on “GATCATGC (double strand) [8-mer GATCATGC]” yielded a binding signal (PBM E-score (-0.5 to 0.5)) of 0.493.
In the case of “GTGCATGA (double strand) [8-mer GTGCATGA]”, the binding signal (PBM E-score (-0.5 to 0.5)) is reported as 0.494.
For “AATGCATG (double strand) [8-mer AATGCATG]”, the binding signal (PBM E-score (-0.5 to 0.5)) was 0.494.
In the case of “TCCATGCA (double strand) [8-mer TCCATGCA]”, the binding signal (PBM E-score (-0.5 to 0.5)) is reported as 0.491.

The sequences below were run against T6, ztf-27 (T09F3.1) (Caenorhabditis elegans) (UniProt G5EDA0).
T6 sequence: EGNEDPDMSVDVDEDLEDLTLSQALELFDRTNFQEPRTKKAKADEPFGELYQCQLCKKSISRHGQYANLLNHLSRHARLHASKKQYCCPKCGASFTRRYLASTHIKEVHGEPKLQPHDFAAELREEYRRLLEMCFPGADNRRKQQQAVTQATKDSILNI
Work on “TGCGCCAA (double strand) [8-mer TGCGCCAA]” yielded a binding signal (PBM E-score (-0.5 to 0.5)) of 0.478.
In the case of “TACACCCA (double strand) [8-mer TACACCCA]”, the binding signal (PBM E-score (-0.5 to 0.5)) is reported as 0.477.
In the case of “AATGGTGT (double strand) [8-mer AATGGTGT]”, the binding signal (PBM E-score (-0.5 to 0.5)) is reported as 0.477.
Sequence “TACACCAA (double strand) [8-mer TACACCAA]” has a binding signal (PBM E-score (-0.5 to 0.5)) of 0.483.
In the case of “TGCACCAA (double strand) [8-mer TGCACCAA]”, the binding signal (PBM E-score (-0.5 to 0.5)) is reported as 0.488.
For “GTGCACCA (double strand) [8-mer GTGCACCA]”, the binding signal (PBM E-score (-0.5 to 0.5)) was 0.484.
Sequence “TGGTGCAA (double strand) [8-mer TGGTGCAA]” has a binding signal (PBM E-score (-0.5 to 0.5)) of 0.483.
With “ACACCAAT (double strand) [8-mer ACACCAAT]” the binding signal (PBM E-score (-0.5 to 0.5)) was 0.478.
Sequence “ATGGTGTG (double strand) [8-mer ATGGTGTG]” has a binding signal (PBM E-score (-0.5 to 0.5)) of 0.477.
“TACGCCAA (double strand) [8-mer TACGCCAA]” showed a binding signal (PBM E-score (-0.5 to 0.5)) of 0.48.
Work on “TGGTGTAA (double strand) [8-mer TGGTGTAA]” yielded a binding signal (PBM E-score (-0.5 to 0.5)) of 0.48.
For “ACACCATA (double strand) [8-mer ACACCATA]”, the binding signal (PBM E-score (-0.5 to 0.5)) was 0.479.
“ATGGTGCA (double strand) [8-mer ATGGTGCA]” was tested, and the binding signal (PBM E-score (-0.5 to 0.5)) was 0.487.
Sequence “ATGGTGTA (double strand) [8-mer ATGGTGTA]” has a binding signal (PBM E-score (-0.5 to 0.5)) of 0.485.
